# Results: US20260242839A1, “GLYCOSIDE PRODUCT BIOSYNTHESIS AND RECOVERY” (Manus Bio Inc., priority 2023, published 2026)
# Substitutions are numbered along the chain they refer to. Names may count otherwise.
# B1: I152L: mutation to UGT enzyme of SEQ ID NO: 14 (protein)
# chain: MATKNSSGMSLAERFWLTLSRSSLVVGRSCVEFEPETVPLLSTLRGKPITFLGLMPPLHEGRREDGEDATVRWLDAQPAKSVVYVALGSEVPLGVEKVHELALGLELAGTRFLWALRKPTGVSDADLLPAGFEERTRGRGVVATRWVPQMSLLAHAAVGAFLTHCGWNSTIEGLMFGHPLIMLPITGDQGPNARLIEAKNAGLQVARNDGDGSFDREGVAAAIRAVAVEEESSKVFQAKAKKLQEIVADMACHERYIDGFIQQLRSYKDDSGYSSSYAAAAGMHVVICPWLAFGHLLPCLDLAQRLASRGHRVSFVSTPRNISRLPPVRPALAPLVAFVALPLPRVEGLPDGAESTNDVPHDRPDMVELHRRAFDGLAAPFSEFLGTACADWVIVDSFHHWAAAAALEHKVPCAMMLLGSAEMIASIADERLEHAETESPAAAGQGRPAAAPTFEVARMKLIR
# B2: R145S: mutation to UGT enzyme of SEQ ID NO: 14 (protein)
# chain: B1 chain with R145S, L152I
# B3: D269R: mutation to UGT enzyme of SEQ ID NO: 14 (protein)
# chain: B1 chain with L152I, D269R
# B4: G94R: mutation to UGT enzyme of SEQ ID NO: 14 (protein)
# chain: B1 chain with G94R, L152I
# B5: V31P: mutation to UGT enzyme of SEQ ID NO: 14 (protein)
# chain: B1 chain with V31P, L152I
# B6: T43D: mutation to UGT enzyme of SEQ ID NO: 14 (protein)
# chain: B1 chain with T43D, L152I
# B7: H99T: mutation to UGT enzyme of SEQ ID NO: 14 (protein)
# chain: B1 chain with H99T, L152I
# B8: C299A: mutation to UGT enzyme of SEQ ID NO: 14 (protein)
# chain: B1 chain with L152I, C299A
# B9: P39T: mutation to UGT enzyme of SEQ ID NO: 14 (protein)
# chain: B1 chain with P39T, L152I
# B10: L417F: mutation to UGT enzyme of SEQ ID NO: 14 (protein)
# chain: B1 chain with L152I, L417F
# B11: S29T: mutation to UGT enzyme of SEQ ID NO: 14 (protein)
# chain: B1 chain with S29T, L152I
# B12: L417M: mutation to UGT enzyme of SEQ ID NO: 14 (protein)
# chain: B1 chain with L152I, L417M
# B13: Q262E: mutation to UGT enzyme of SEQ ID NO: 14 (protein)
# chain: B1 chain with L152I, Q262E
# B14: Y267H: mutation to UGT enzyme of SEQ ID NO: 14 (protein)
# chain: B1 chain with L152I, Y267H
# B15: T3R: mutation to UGT enzyme of SEQ ID NO: 14 (protein)
# chain: B1 chain with T3R, L152I
# B16: V95Q: mutation to UGT enzyme of SEQ ID NO: 14 (protein)
# chain: B1 chain with V95Q, L152I
# B17: A238E: mutation to UGT enzyme of SEQ ID NO: 14 (protein)
# chain: B1 chain with L152I, A238E
# B18: ins_A2_T3_R: SEQ ID NO: 14 with insertion of Arg between A2 and T3 (protein)
# chain: MARTKNSSGMSLAERFWLTLSRSSLVVGRSCVEFEPETVPLLSTLRGKPITFLGLMPPLHEGRREDGEDATVRWLDAQPAKSVVYVALGSEVPLGVEKVHELALGLELAGTRFLWALRKPTGVSDADLLPAGFEERTRGRGVVATRWVPQMSILAHAAVGAFLTHCGWNSTIEGLMFGHPLIMLPITGDQGPNARLIEAKNAGLQVARNDGDGSFDREGVAAAIRAVAVEEESSKVFQAKAKKLQEIVADMACHERYIDGFIQQLRSYKDDSGYSSSYAAAAGMHVVICPWLAFGHLLPCLDLAQRLASRGHRVSFVSTPRNISRLPPVRPALAPLVAFVALPLPRVEGLPDGAESTNDVPHDRPDMVELHRRAFDGLAAPFSEFLGTACADWVIVDSFHHWAAAAALEHKVPCAMMLLGSAEMIASIADERLEHAETESPAAAGQGRPAAAPTFEVARMKLIR
# B19: S308Q: mutation to UGT enzyme of SEQ ID NO: 14 (protein)
# chain: B1 chain with L152I, S308Q
# B20: E254D: mutation to UGT enzyme of SEQ ID NO: 14 (protein)
# chain: B1 chain with L152I, E254D
# System: steviol glycoside
# Assay: steviol glycoside bioconversion by E. coli expressing individual mutations of UGT SEQ ID NO: 14
# Assay type: cell-based
# Conditions: fold improvement of % conversion vs parent UGT SEQ ID NO: 14; stevia leaf extract and glucose fed; 37° C., 48 hr
# Description: Fold improvement is with respect to % steviol glycoside conversion of the parent UGT enzyme of SEQ ID NO: 14. The UGT enzyme of SEQ ID NO: 15 has the following mutations from SEQ ID NO: 14: ins_A2_T3_RR, H59P, A238E, L417F. Stevia leaf extract and glucose were fed to the bioconversion strains. Bioconversion took place at 37° C. for 48 hr. Data were quantified by reverse phase LC DAD to quantify conversion of steviol glycosides.
# Fold improvement (FI) is with respect to % steviol glycoside conversion.
Molecule,FI %Stevioside→rebE,FI %rebA→rebD
B1,1.09,1.15
B2,1.06,1.14
B3,2.0,1.7
B4,1.12,1.13
B5,1.22,1.08
B6,1.29,1.08
B7,0.76,1.04
B8,0.76,1.03
B9,1.31,0.98
B10,1.34,1.24
B11,1.05,1.00
B12,1.02,1.02
B13,2.0,1.7
B14,1.8,1.6
B15,1.9,1.6
B16,1.8,1.6
B17,1.9,1.6
B18,1.9,1.6
B19,1.6,1.6
B20,1.7,1.5
